# Source: patent WO2024019110A1 (dated 2024)
# B1: recombinant Fab protein of antibody No. 2 (Fab, V domains shown)
# VH: EVQLVESGGGVVQPGRSLRLSCAASGFKFSKFAMHWVRQAPGKGPEWVAVISYDGNQYHSADSVKGRFTISRDNSFNTLYLQMNSLGPEDTAVYYCARDGPDTSGYYANIYFDFWGQGTLVTVSS
# VL: QSVLTQPPSVSGAPGQRVTISCTGSSSNIGAGYDVHWYQQLPGRAPKLLIFDNNNRPSGVPDRFSGSKSGTSASLAITGLQTEDEAYYYCQSYDNSLILAVFGGGTKVTVL
# B2: recombinant Fab protein of antibody No. 6 (Fab, V domains shown)
# VH: QVQLVQSGPEVKKPGTSVKVSCKASGFTFYYSAVQWVRQARGQRLEWLGWMAVGSGKANYAQKFQERLTLTRDMSTSTAYMELSSLRSEDTAVYYCAAPNCTGGSCYDGFNLWGQGTVVTVSS
# VL: EIVLTQSPGTLSLSPGDRAILSCRASQTVNSNYLAWYQQKPGQAPRLLIYGTSSRATGIPDRFSGSGSGTDFTLTISRLEPEDFAVYYCQQYGSSPWLFGQGTKVEIK
# B3: recombinant Fab protein of antibody No. 7 (Fab, V domains shown)
# VH: EVQLLESGGGLVQPGGSLRLSCAASGFTFSRYALSWVRQAPGKGLEWVSAISGAAITTYYADSVKGRFTISRDDSRNTLFMQMDSLRAEDTAVYYCAKGDYYDSSGYLAEYFPHWGQGTLVTVSS
# VL: SYELTQPPSVSVSPGQTARITCFADALPKQHAYWYQQKAGQAPVLVIFKDTERPSGIPKRFSGSRSGATVTLTISGVQAEDEADYYCQSTDISGVLFGGGTKLTVL
# B4: recombinant Fab protein of antibody No. 5 (Fab, V domains shown)
# VH: EVQLVESGGGLVQPGGSLRLSCAASGFTFYSYWMTWVRQAPGKGLEWVANIKHDESESHYVDSVRGRFTISRDNAKNSVYLQMKGLRAEDTAVYYCARDGGYNILTAYYHAPSYWGQGTLVTVSS
# VL: QSALTQPASVSGSPGQSITISCTGTSSDVGGYNFVSWYRQYPGKAPQLMIYDVSRRPSGDSDRFSGSKSGNTASLTISGLQAEDEAEYHCSSYTGRSPYVVFGGGTKVTVL
# Biological target: Wuhan strain RBD (Ancestral), biotinylated (SARS-CoV-2 (Wuhan strain), UniProt P0DTC2 331-529)
# Experiment: BLI (Octet), biotinylated RBD on streptavidin biosensor, Fab in solution
row,Binder,Kd [nM]
1,B1,≤ 100
2,B2,≤ 100
3,B3,≤ 100
4,B4,≤ 100
